The DeepSol protein solubility set

assay: soluble on expression in E. coli; label from the status in PepcDB or PDB records

Sequence | soluble on expression in E. coli
MLELDTRQIRMGQRAADKAEALRLLGAALVADGLAAPGYAEGLKAREAQGSTYLGQGIAIPHGTPDTRELVFSTGVRLLQFPEGVDWGDGQQVYLAIGIAAKSDEHLQLLQLLTRALGEADLGPALSAAASAEEVLGLLQGAPQELALDAQLVGLGQNAEDLDELAWLGARLLKKAGCVENGFAAVLQQTEPLPLGDGLCWLHSEQLVKRPGLAFVTPAQPLQHQGQLVTGLFCLASLGEAHQALLERLCDLLLEGRGAELVRATSSRSVLAALGGELPPDWPSARAVLANPHGLHARPAQALAQLAKGFAGEIRVRLADSEAAPVSAKSLSKLLALGARRGQTLEFSAEPAIAEDALPALLAAVREGLGEEVEALAEEALPDAVGEAEEDARPAPLRAGERLQAIAASPGIASGPAHVQVAQRFEFQPRGESPAHERERLLRAKRAVDEEIVGLVERSTVKAIREIFVTHREMLDDPELAEQVQLRLNRGESAEAAWSRVVEDSAAQQEALHDALLAERAADLRDLGRRVLARLCGVEAPREPEQPYILVMDEVGPSDVARLDAQRVAGILTARGGATSHSAIIARALGIPALVGAGAAVLGLEPGTALLLDGEHGWLQVAPSTEQLQQAAAERDARQQRQARADAQRLEPARTRDGHAVEVCANLGDTAGAARAVELGAEGVGLLRTEFVFMNNARAPDLATQEAEYRRVLDALDGRPLVARTLDVGGDKPLPYWPIPHEENPYLGLRGIRLTLQRPQILETQLRALFRAAGERPLRVMFPMVGSLDEWRQARDLALRLREEIPLADLQLGIMVEVPSAALLAPVLAREVDFFSVGTNDLTQYTLAIDRGHPSLSAQADGLHPAVLQLIDMTVRAAHAEGKWVGVCGELAADPLALPLLVGLGVDELSVSARSIALVKAGVRELQLVAARGLARKALGLASAAEVRA | not soluble
MGFIMEFAENLVLRLMENPEERDRKAREHIYEMHERCKKIKEMWALPIRPYGFWTFERHNAQLRWDPQISQVAGRRDPYDDLLEDNYTPPSSSSSSSD | soluble
IQHATASLIQTNTDQELLVVDVTPSFASLWLVPNINDFHQRHPNIRVKILTGDGAVKNIHGESDLHVRCLPLSTHYEYSQLLCEETLLLIGNTNLPKLSDNQAISHYPFIPQTTRPQLWEQFKQENDLECPITYHSVGFEHFYLACEAVRMEKGLALLPDFMAQFSILRGDIQHIGNLKLHSGYGYYVVIPNFRLTSRKVALFHDWLKDKLTHHT | soluble
MSKFWSPFVKDLVPYVPGEQPKLSRLVKLNTNENPYGPSPQALAAMQAELNDDLRLYPDPNGERLKQAVAAHYGVQANQVFVGNGSDEVLAHIFHGLFQHDLPLLFPDVTYSFYPVYCGLYGIAHEKIALDERFRIRVEDYARPNGGIIFPNPNAPTGCLLPLDAIEAMLKASPDSVVVVDEAYVDFGGESAIALVDRYPNLLVTQTLSKSRSLAGLRVGLAVGHADLVEALERIKNSFNSYPLDRLAIAGAAAAFEDDAYFRRTCQAVIDSREALSASLQALGFEVLPSAANFVFARHPRHDAGQIASTLREQGVIVRHFKQARIDQFLRITIGSPEQNQALLDALHFLK | not soluble
GMVEVSQFKDAMAQLASAVHIVTTSGETGQHGFTASAVCSVTDSPPTLLVCINSNARAYEHFVKNRVLMVNTLTAEQSSLSNIFASPLSQEERFSNASWTTLTTGSPMLQDALINFDCEITEIKHVGTHDILICKIVDIHQSNAKNALVYRNRVYHSV | soluble
MSLKDQDIFELIEPSTDINDIIMPENTKELLENILKQQDKKVLERLHSWGIKSNKNIEAKIIFYGPAGTGKTMSALAMAKSMKKSVLSFDCSKILSKWVGESEQNVRKIFDTYKNIVQTCKQSPILLLNEADQFLSTRVDGSSGSDKMHNQMQNIFLEQIERFSGVIIATTNFLESLDSAFSRRFDYKIEFKKPDFKDRLKIWEKFLPKKALFEKDFDINILSNYELSGAQILMVVKNTALKVAVSKDGVFKIQDFIESIQKELNSSFDKSKIVGFEGHHHHHH | soluble
MSSVYDFNVKNANGDDVSLSDYKGKVLIIVNVASQCGLTNKNYTQLKELLDVYKKDGLEVLAFPCNQFAGQEPSCEIDIQAFVADKFKFEPTLFQKIDVNGDKQSPLFKFLKNEKGGFMFDAIKWNFTKFLVGRDGKIIKRFGPTTDPKDMEKDIKEALGEKL | not soluble
ATLKDITRRLKSIKNIQKITKSMKMVAAAKYARAERELKPARVYGVGSLALYEKADIKTPEDKKKHLIIGVSSDRGLCGAIHSSVAKQMKSEAANLAAAGKEVKIIGVGDKIRSILHRTHSDQFLVTFKEVGRRPPTFGDASVIALELLNSGYEFDEGSIIFNRFRSVISYKTEEKPIFSLDTISSAESMSIYDDIDADVLRNYQEYSLANIIYYSLKESTTSEQSARMTAMDNASKNASEMIDKLTLTFNRTRQAVITKELIEIISGAAAL | soluble
